Results as given in patent publication US20250368735A1 (AKESO BIOPHARMA, published 2025).

Tests used:
[1] = biological target: T1, CLDN18.2 on the cell membrane surface (CHO-K1-CLDN18.2 cells, CHO-K1-CLDN18.2-CD47 cells, CHO-K1-hClaudin18.2 … (human, UniProt P56856-2 1-261)); assay: indirect ELISA screening with CHO-K1-hClaudin18.2 cells as antigen
T1 construct: whole, on cells; also called human Claudin18.2

[2] = biological target: T2, human CLDN18.2 (ELISA coating antigen) (human, UniProt P56856-2 1-261, limits assumed); assay: indirect ELISA, coated human CLDN18.2 2 µg/mL
T2 construct: also called antigen human CLDN18.2
Experimental: After blocking, the ELISA plate was washed 3 times with PBST. The ELISA plate containing the test antibodies was incubated at 37° C. for 30 min and then washed 3 times with PBST. […] The ELISA plate was put into a microplate reader immediately, and the OD value of each well in the ELISA plate was read at 450 nm. The data were analyzed and processed by SoftMax Pro 6.2.1.

CD47 IgV TEV-His [3] = biological target: T3, CD47 IgV TEV-His (human, UniProt Q08722 19-141); assay: indirect ELISA screening with CD47 IgV TEV-His as antigen
T3 construct: range 19-141; also called human CD47 IgV TEV-His; not shown: his tag

CD47 IgV TEV-His [4] = biological target: T3, CD47 IgV TEV-His; assay: indirect ELISA, coated CD47-Igv-TEV-his 2 µg/mL
Experimental: After blocking, the ELISA plate was washed 3 times with PBST. The ELISA plate containing the test antibodies was incubated at 37° C. for 30 min and then washed 3 times with PBST. […] The data were analyzed and processed by SoftMax Pro 6.2.1.

[5] = biological target: T4, CD47 on the cell membrane surface (CHO-K1-CLDN18.2-CD47 cells, 3T3-CD47 cells, human red blood cells, human T … (human, UniProt Q08722 19-323)); assay: flow cytometry (FACS) on CHO-K1-CLDN18.2-CD47 cells, PE anti-human IgG Fc
T4 construct: whole, on cells; blood cells came from healthy human volunteers; also called cell membrane surface antigen CD47
Experimental: CHO-K1-CLDN18.2-CD47 cells (CHO-K1 cells overexpress CLDN18.2 and CD47 antigens, and are obtained from Cell Resource Center, Institute of Basic Medical Sciences, Chinese Academy of Medical Sciences) in the logarithmic growth phase were collected, and were transferred to a V-bottomed 96-well plate at 1×10⁵ cells/well. 100 μL of 1% PBSA (PBS+1% BSA) was added, and the mixture was centrifuged at 1000×g for 5 min, followed by removal of the supernatant. […] The mixture was mixed gently and well, and then incubated on ice for 40 min. 150 μL of 1% PBSA was added to each well, and the mixture was centrifuged at 1000×g for 5 min. The supernatant was discarded, and the plate was further washed three times at 200 μL/time. […] The diluted antibody was added to corresponding samples at 100 μL/well, and the cell pellet was resuspended and incubated on ice in the dark for 0.5 h. 150 μL of 1% PBSA was added to each well, and the mixture was centrifuged at 1000 g for 5 min, followed by removal of the supernatant. Then the plate was washed twice with 200 μL of 1% PBSA. 200 μL of 1% PBSA was added to each well to resuspend the cell pellet, and the mixture was transferred to a flow cytometry tube. FACS Calibur assay was performed, and the binding activity was analyzed.

CD47 ECD-His = biological target: T5, CD47 ECD-His (human, UniProt Q08722 19-141, limits assumed); assay: BLI (Fortebio Octet), antibody on AHC sensor, CD47 ECD-His 4.94-400 nM, 1:1 fit
T5 construct: extracellular domain; also called human CD47 ECD-His; not shown: His tag
Experimental: The affinity constant of the antibody for human CLDN18.2 and CD47 ECD-His was determined using a Fortebio Octer molecular interaction instrument. The sample dilution buffer was PBS (0.02% Tween-20, 0.1% BSA, pH 7.4). The method for detecting the affinity of the antibody for human CLDN18.2 is as follows. The antibody at 20 nM was immobilized on an AHC sensor for 60 s. The sensor was equilibrated in a buffer for 60 s, and the binding of the immobilized antibody on the sensor to CLDN18.2 His at concentrations of 6.25-100 nM (two-fold dilution) was determined for 180 s. The protein was dissociated in the buffer for 360 s. The method for detecting the affinity of the antibody to human CD47 ECD-His is as follows. The antibody at 30 nM was immobilized on an AHC sensor for 120 s. The sensor was equilibrated in a buffer for 60 s, and the binding of the immobilized antibody on the sensor to the protein CD47 ECD-His at concentrations of 4.94-400 nM (three-fold dilution) was determined for 50 s. The protein was dissociated in the buffer for 120 s. The shaking speed of the sample plate was 1000 rpm, the temperature was 30° C., and the frequency was 5.0 Hz. The data were analyzed by 1:1 model fitting to obtain affinity constants. The data acquisition software was Fortebio Data Acquisition 12.0, and the data analysis software was Fortebio Data Analysis HT 12.0.

[6] = biological target: T4, CD47 on the cell membrane surface …; assay: competitive flow cytometry on CHO-K1-CLDN18.2-CD47 cells; competitor hSIRPaV2-hFc-mFc at 3 nM
Experimental: 100 μL of 1% PBSA was then added to each well, and the mixture was centrifuged and washed.

B1: 8C5.1 (antibody, V domains shown)
VH: EVQLVESGGGLVKPGGSLKLSCAASGFTFSNSAVSWVRQTPEKRLEWVATITSGVSYTYYLDSVRGRFTISRDNAKNTLYLQMSSLRSEDTAMYYCTRQFKGNALDYWGQGTSVTVSS
VL: DIVMTQSPSSLTVTAGEKVTMSCKSSQSLLNSGNQKNYLTWYQQKPGQPPKLLIYWASTRESGVPDRFTGSGSGTDFTLTINNFQAEDLAVYYCQNDYFYPLTFGAGTKLELK
notes: Mouse hybridoma antibody; also called anti-CLDN18.2 antibody 8C5.1; monoclonal antibody secreted by hybridoma cell line LT020
[1]
  binding result: binds

B2: IMAB362 (antibody, V domains shown)
VH: QVQLQQPGAELVRPGASVKLSCKASGYTFTSYWINWVKQRPGQGLEWIGNIYPSDSYTNYNQKFKDKATLTVDKSSSTAYMQLSSPTSEDSAVYYCTRSWRGNSFDYWGQGTTLTVSS
VL: DIVMTQSPSSLTVTAGEKVTMSCKSSQSLLNSGNQKNYLTWYQQKPGQPPKLLIYWASTRESGVPDRFTGSGSGTDFTLTISSVQAEDLAVYYCQNDYSYPFTFGSGTKLEIKR
[2]
  EC50: 0.014 nM

B3: 6F7 (antibody, V domains shown)
VH: QVQLQQPGAELVRPGASVKLSCKASGYTFTSYWMNWVKQRPGQGLEWIGMIDPSDSETHNNQMFKDKATLTVDKSSNTAYMHLSSLTSEDSAVYHCARLYRWYFDVWGAGTTVTVSS
VL: NIVMTQSPKSMSMSLGERVTLSCKASEIVGTYVSWFQQKPHQSPKLLIYGASNRYTGVPDRFTGSGSATDFTLTISNVQAEDLADYHCGQSYNFPYTFGGGTKLEIK
notes: Mouse hybridoma antibody; also called anti-CD47 antibody 6F7; monoclonal antibody secreted by hybridoma cell line LT012
CD47 IgV TEV-His [3]
  binding result: binds

B4: 6F7H1L1(hG4) (antibody, V domains shown)
VH: QVQLVQSGAEVVKPGASVKLSCKASGYTFTSYWMNWVRQRPGQGLEWIGMIDPSDSETHNAQKFQGKATLTVDKSTSTAYMHLSSLRSEDTAVYYCARLYRWYFDVWGAGTTVTVSS
VL: NIVMTQSPATMSMSPGERVTLSCRASEIVGTYVSWFQQKPGQAPRLLIYGASNRYTGVPARFSGSGSGTDFTLTISSVQPEDLADYHCGQSYNFPYTFGGGTKLEIKR
CD47 IgV TEV-His [4]
  EC50: 0.012 nM
[5]
  EC50: 1.29 nM
CD47 ECD-His
  Kd: 27.3 nM
  koff: 0.0142 s⁻¹
  kon: 519000 M⁻¹ s⁻¹
[6]
  EC50: 5 nM
